Results reported in patent EP4499697A1 (dated 2025).

Legend:
[1] = biological target: T1, human FRα on cells (human, UniProt P15328 25-234); assay: flow cytometry on IGROV-1 cells (endogenous FRα), apparent Kd
T1 construct: whole, on cells; also called FOLR1; FRα on transfected HEK293-6e or CHO-S cells

[2] = biological target: T1, human FRα on cells; assay: cell-based or functional assay

T1 sequence (P15328 25-234): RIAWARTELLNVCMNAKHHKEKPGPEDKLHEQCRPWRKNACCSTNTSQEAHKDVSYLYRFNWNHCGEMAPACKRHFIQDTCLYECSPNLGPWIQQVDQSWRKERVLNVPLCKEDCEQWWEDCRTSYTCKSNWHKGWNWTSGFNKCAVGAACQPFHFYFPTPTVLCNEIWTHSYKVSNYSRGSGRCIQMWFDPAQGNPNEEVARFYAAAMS

B1: mirvetuximab (v17716) (antibody, V domains shown)
VH: QVQLVQSGAEVVKPGASVKISCKASGYTFTGYFMNWVKQSPGQSLEWIGRIHPYDGDTFYNQKFQGKATLTVDKSSNTAHMELLSLTSEDFAVYYCTRYDGSRAMDYWGQGTTVTVSS
VL: DIVLTQSPLSLAVSLGQPAIISCKASQSVSFAGTSLMHWYHQKPGQQPRLLIYRASNLEAGVPDRFSGSGSKTDFTLTISPVEAEDAATYYCQQSREYPYTFGGGTKLEIK
For B1, the Kd [1] was 0.69 nM and the “internalized fluorescence relative to v30384, 25 nM, 5-hour incubation, IGROV-1 cells” value [2] was 0.5 fold.
